Measured values published in article PMC4366684 (The FEBS journal, 2013).

What was measured:
[1] = biological target: T1, low-specificity Escherichia coli L-threonine aldolase (eTA) (Escherichia coli, UniProt P75823); experiment: X-ray crystal structure, […] Å; format: binding; conditions: covalent, internal aldimine with Lys197; 1:1 per subunit
[2] = biological target: T1, low-specificity Escherichia coli L-threonine aldolase (eTA); experiment: X-ray crystal structure, […] Å, co-crystallised with L-serine; format: binding; conditions: covalent, external aldimine with PLP; partial occupancy
purified protein [3] = substrate: C[C@@H](O)[C@H](N)C(=O)O; experiment: purified protein; format: biochemical, Escherichia coli; conditions: 20 mM potassium phosphate, pH 7.0, 30 °C, retro-aldol cleavage
purified protein [4] = substrate: C[C@H](O)[C@H](N)C(=O)O; experiment: purified protein; format: biochemical, Escherichia coli; conditions: 20 mM potassium phosphate, pH 7.0, 30 °C, retro-aldol cleavage

Molecule | X-ray crystal structure, 2.2 Å [1] | X-ray crystal structure, 2.2 Å, co-crystallised with L-serine [2] | Km (purified protein [3]) | kcat (purified protein [3]) | kcat/Km (purified protein [3]) | Km (purified protein [4]) | kcat (purified protein [4]) | kcat/Km (purified protein [4])
Cc1ncc(COP(=O)(O)O)c(C=O)c1O [PLP] | PLP bound at their interface, forming a Schiff base (internal aldimine) with the conserved Lys197 |  |  |  |  |  |  | 
NCC(=O)O [glycine] |  | external aldimine with glycine (in which the C4’ is bound to the amino group |  |  |  |  |  | 
low-specificity Escherichia coli L-threonine aldolase (eTA) (Escherichia coli K-12) (protein) MIDLRSDTVTRPSRAMLEAMMAAPVGDDVYGDDPTVNALQDYAAELSGKEAAIFLPTGTQANLVALLSHCERGEEYIVGQAAHNYLFEAGGAAVLGSIQPQPIDAAADGTLPLDKVAMKIKPDDIHFARTKLLSLENTHNGKVLPREYLKEAWEFTRERNLALHVDGARIFNAVVAYGCELKEITQYCDSFTICLSKGLGTPVGSLLVGNRDYIKRAIRWRKMTGGGMRQSGILAAAGIYALKNNVARLQEDHDNAAWMAEQLREAGADVMRQDTNMLFVRVGEENAAALGEYMKARNVLINASPIVRLVTHLDVSREQLAEVAAHWRAFLAR |  |  | 19400 µM | 1.87 s⁻¹ | 96.7 M⁻¹ s⁻¹ | 240 µM | 3.55 s⁻¹ | 14800 M⁻¹ s⁻¹
low-specificity Escherichia coli L-threonine aldolase (eTA) (Escherichia coli K-12; H126N) (protein) MIDLRSDTVTRPSRAMLEAMMAAPVGDDVYGDDPTVNALQDYAAELSGKEAAIFLPTGTQANLVALLSHCERGEEYIVGQAAHNYLFEAGGAAVLGSIQPQPIDAAADGTLPLDKVAMKIKPDDINFARTKLLSLENTHNGKVLPREYLKEAWEFTRERNLALHVDGARIFNAVVAYGCELKEITQYCDSFTICLSKGLGTPVGSLLVGNRDYIKRAIRWRKMTGGGMRQSGILAAAGIYALKNNVARLQEDHDNAAWMAEQLREAGADVMRQDTNMLFVRVGEENAAALGEYMKARNVLINASPIVRLVTHLDVSREQLAEVAAHWRAFLAR |  |  |  |  |  | 960 µM | 7.82 s⁻¹ | 8130 M⁻¹ s⁻¹
low-specificity Escherichia coli L-threonine aldolase (eTA) (Escherichia coli K-12; F87D) (protein) MIDLRSDTVTRPSRAMLEAMMAAPVGDDVYGDDPTVNALQDYAAELSGKEAAIFLPTGTQANLVALLSHCERGEEYIVGQAAHNYLDEAGGAAVLGSIQPQPIDAAADGTLPLDKVAMKIKPDDIHFARTKLLSLENTHNGKVLPREYLKEAWEFTRERNLALHVDGARIFNAVVAYGCELKEITQYCDSFTICLSKGLGTPVGSLLVGNRDYIKRAIRWRKMTGGGMRQSGILAAAGIYALKNNVARLQEDHDNAAWMAEQLREAGADVMRQDTNMLFVRVGEENAAALGEYMKARNVLINASPIVRLVTHLDVSREQLAEVAAHWRAFLAR |  |  |  |  |  | 410 µM | 1.95 s⁻¹ | 4750 M⁻¹ s⁻¹
low-specificity Escherichia coli L-threonine aldolase (eTA) (Escherichia coli K-12; K222A) (protein) MIDLRSDTVTRPSRAMLEAMMAAPVGDDVYGDDPTVNALQDYAAELSGKEAAIFLPTGTQANLVALLSHCERGEEYIVGQAAHNYLFEAGGAAVLGSIQPQPIDAAADGTLPLDKVAMKIKPDDIHFARTKLLSLENTHNGKVLPREYLKEAWEFTRERNLALHVDGARIFNAVVAYGCELKEITQYCDSFTICLSKGLGTPVGSLLVGNRDYIKRAIRWRAMTGGGMRQSGILAAAGIYALKNNVARLQEDHDNAAWMAEQLREAGADVMRQDTNMLFVRVGEENAAALGEYMKARNVLINASPIVRLVTHLDVSREQLAEVAAHWRAFLAR |  |  |  |  |  | 1200 µM | 1.33 s⁻¹ | 1120 M⁻¹ s⁻¹
low-specificity Escherichia coli L-threonine aldolase (eTA) (Escherichia coli K-12; F87A) (protein) MIDLRSDTVTRPSRAMLEAMMAAPVGDDVYGDDPTVNALQDYAAELSGKEAAIFLPTGTQANLVALLSHCERGEEYIVGQAAHNYLAEAGGAAVLGSIQPQPIDAAADGTLPLDKVAMKIKPDDIHFARTKLLSLENTHNGKVLPREYLKEAWEFTRERNLALHVDGARIFNAVVAYGCELKEITQYCDSFTICLSKGLGTPVGSLLVGNRDYIKRAIRWRKMTGGGMRQSGILAAAGIYALKNNVARLQEDHDNAAWMAEQLREAGADVMRQDTNMLFVRVGEENAAALGEYMKARNVLINASPIVRLVTHLDVSREQLAEVAAHWRAFLAR |  |  |  |  |  | 310 µM | 2.67 s⁻¹ | 8600 M⁻¹ s⁻¹
low-specificity Escherichia coli L-threonine aldolase (eTA) (Escherichia coli K-12; H126F) (protein) MIDLRSDTVTRPSRAMLEAMMAAPVGDDVYGDDPTVNALQDYAAELSGKEAAIFLPTGTQANLVALLSHCERGEEYIVGQAAHNYLFEAGGAAVLGSIQPQPIDAAADGTLPLDKVAMKIKPDDIFFARTKLLSLENTHNGKVLPREYLKEAWEFTRERNLALHVDGARIFNAVVAYGCELKEITQYCDSFTICLSKGLGTPVGSLLVGNRDYIKRAIRWRKMTGGGMRQSGILAAAGIYALKNNVARLQEDHDNAAWMAEQLREAGADVMRQDTNMLFVRVGEENAAALGEYMKARNVLINASPIVRLVTHLDVSREQLAEVAAHWRAFLAR |  |  |  |  |  | 200 µM | 9.02 s⁻¹ | 45100 M⁻¹ s⁻¹
